The target in the test is Cnm1 (contact nucleus mitochondria 1) tagged with GFP on its C terminus (S. cerevisiae). Description: co-IP; GFP-Trap beads precipitate Cnm1-GFP from cleared yeast lysate (1% digitonin, 150 mM NaCl, 50 mM Tris-HCl pH 8.0, 5% glycerol, 1 mM MgCl2), 1 h at 4°C; Western blot with antibodies against GFP and mCherry; enrichment by densitometry.

On to “Tom70 tagged with mCherry on its C terminus (from UniProt P07213 1-617) (natural protein)”, for which the fold enrichment in the immunoprecipitate relative to Tom20 is 2 fold.

For the origin of these results see article PMC8548916.
